Target: Biotinylated human Norrin K58N (disease-associated mutation) (human, UniProt Q00604 25-133, K58N, biotin on the C-terminal BirA recognition sequence (in vivo biotinylation))
Assay: SPR

Sequence of Biotinylated human Norrin K58N (disease-associated mutation) (Q00604 25-133 K58N): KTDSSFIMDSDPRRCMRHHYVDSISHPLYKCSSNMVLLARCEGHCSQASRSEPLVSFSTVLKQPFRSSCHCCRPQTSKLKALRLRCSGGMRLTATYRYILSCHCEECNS

B1: Frizzled4 cysteine-rich domain (Fz4CRD), human (domain or fragment)
chain: ERRCDPIRISMCQNLGYNVTKMPNLVGHELQTDAELQLTTFTPLIQYGCSSQLQFFLCSVYVPMCTEKINIPIGPCGGMCLSVKRRCEPVLKEFGFAWPESLNCSKFPPQNDHNHMCMEGPGDEEVPLPHKTPIQPGE
modifications: N-linked glycans at Asn59 and Asn144 (full, or cut to N-acetylglucosamine by Endo-F1)
Kd: 1.24 µM

Reference: publication PMC4497409 (2015)
